Patent publication US20200157519A1 (IMMUNWORK, published 2020)

Legend:
mouse fibrinogen = biological target: T1, mouse fibrinogen (mouse, UniProt E9PV24 20-557; Q8K0E8 20-481; Q8VCM7 26-436, limits assumed); test: ELISA on coated plate, HRP-protein L detection
T1 construct: Bought protein; also called fibrinogen from mouse (Sigma)
T1 sequence (looked up) 1: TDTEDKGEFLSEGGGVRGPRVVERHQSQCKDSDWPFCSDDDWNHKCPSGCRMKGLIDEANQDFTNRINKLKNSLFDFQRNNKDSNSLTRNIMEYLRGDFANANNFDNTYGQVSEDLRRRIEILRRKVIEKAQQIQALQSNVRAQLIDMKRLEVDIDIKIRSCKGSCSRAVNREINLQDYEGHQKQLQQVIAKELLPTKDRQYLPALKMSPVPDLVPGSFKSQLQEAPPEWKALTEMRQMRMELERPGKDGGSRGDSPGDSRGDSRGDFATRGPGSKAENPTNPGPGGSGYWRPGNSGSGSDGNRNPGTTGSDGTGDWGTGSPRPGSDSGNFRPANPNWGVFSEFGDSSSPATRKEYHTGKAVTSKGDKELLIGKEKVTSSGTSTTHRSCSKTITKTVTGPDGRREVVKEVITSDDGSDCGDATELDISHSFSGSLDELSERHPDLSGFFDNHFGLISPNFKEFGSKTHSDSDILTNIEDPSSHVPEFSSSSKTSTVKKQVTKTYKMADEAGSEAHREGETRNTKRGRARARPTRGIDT
T1 sequence (looked up) 2: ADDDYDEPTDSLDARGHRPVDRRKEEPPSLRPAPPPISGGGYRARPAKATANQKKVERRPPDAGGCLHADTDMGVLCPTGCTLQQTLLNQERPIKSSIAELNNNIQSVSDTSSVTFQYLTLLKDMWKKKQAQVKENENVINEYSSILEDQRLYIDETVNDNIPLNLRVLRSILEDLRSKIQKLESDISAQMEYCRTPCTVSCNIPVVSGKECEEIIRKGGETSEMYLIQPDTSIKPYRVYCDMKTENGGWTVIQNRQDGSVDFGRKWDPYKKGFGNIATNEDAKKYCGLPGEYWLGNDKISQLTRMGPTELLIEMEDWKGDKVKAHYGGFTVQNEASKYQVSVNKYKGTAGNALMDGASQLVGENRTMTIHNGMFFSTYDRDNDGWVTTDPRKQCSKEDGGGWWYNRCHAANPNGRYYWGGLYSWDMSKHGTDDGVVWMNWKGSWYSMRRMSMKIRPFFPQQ
T1 sequence (looked up) 3: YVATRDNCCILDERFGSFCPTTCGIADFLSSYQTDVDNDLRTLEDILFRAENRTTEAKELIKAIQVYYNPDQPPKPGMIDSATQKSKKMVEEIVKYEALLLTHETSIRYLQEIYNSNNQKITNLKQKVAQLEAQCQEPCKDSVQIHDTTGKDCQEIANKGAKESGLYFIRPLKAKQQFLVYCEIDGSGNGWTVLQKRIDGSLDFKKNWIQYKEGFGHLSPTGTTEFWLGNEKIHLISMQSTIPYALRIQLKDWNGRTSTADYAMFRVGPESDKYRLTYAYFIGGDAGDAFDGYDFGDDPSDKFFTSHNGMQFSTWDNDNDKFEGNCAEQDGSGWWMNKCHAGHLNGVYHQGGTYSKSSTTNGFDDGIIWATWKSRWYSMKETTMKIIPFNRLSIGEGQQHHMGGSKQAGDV

[1] = biological target: T2, mouse fibrin (mouse fibrinogen coated on the plate and treated with thrombin) (mouse, UniProt E9PV24 37-557; Q8K0E8 35-481; Q8VCM7 26-436); test: ELISA at 200 nM on mouse fibrin plate, HRP-protein L
T2 construct: Made on the plate from mouse fibrinogen (Sigma) with thrombin
T2 sequence (looked up) 1: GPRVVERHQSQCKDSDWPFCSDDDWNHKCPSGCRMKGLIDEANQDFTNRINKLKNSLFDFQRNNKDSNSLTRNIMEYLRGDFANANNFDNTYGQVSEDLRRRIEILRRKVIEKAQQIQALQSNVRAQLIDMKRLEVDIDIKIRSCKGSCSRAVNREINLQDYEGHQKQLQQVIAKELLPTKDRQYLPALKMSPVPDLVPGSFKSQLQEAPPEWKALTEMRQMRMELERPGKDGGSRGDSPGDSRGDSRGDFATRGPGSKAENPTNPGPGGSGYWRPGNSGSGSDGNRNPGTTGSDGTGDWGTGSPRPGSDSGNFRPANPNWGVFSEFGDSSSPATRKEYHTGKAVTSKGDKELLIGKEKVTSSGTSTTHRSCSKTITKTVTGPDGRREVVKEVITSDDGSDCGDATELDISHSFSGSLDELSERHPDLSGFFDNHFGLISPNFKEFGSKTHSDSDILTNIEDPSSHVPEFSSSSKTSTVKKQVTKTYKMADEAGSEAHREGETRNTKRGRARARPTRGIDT
T2 sequence (looked up) 2: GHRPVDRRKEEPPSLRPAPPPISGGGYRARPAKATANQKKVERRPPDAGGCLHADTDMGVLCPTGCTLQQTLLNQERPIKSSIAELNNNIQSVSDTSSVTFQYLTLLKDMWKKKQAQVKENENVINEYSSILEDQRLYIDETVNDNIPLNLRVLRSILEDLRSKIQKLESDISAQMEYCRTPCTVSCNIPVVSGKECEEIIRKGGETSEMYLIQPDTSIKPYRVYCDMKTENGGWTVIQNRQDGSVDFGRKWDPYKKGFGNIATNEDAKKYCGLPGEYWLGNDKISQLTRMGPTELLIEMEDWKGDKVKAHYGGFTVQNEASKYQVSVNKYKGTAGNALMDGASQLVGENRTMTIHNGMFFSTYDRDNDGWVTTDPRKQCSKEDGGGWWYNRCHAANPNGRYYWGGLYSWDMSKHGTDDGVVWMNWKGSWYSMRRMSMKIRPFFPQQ
T2 sequence (looked up) 3: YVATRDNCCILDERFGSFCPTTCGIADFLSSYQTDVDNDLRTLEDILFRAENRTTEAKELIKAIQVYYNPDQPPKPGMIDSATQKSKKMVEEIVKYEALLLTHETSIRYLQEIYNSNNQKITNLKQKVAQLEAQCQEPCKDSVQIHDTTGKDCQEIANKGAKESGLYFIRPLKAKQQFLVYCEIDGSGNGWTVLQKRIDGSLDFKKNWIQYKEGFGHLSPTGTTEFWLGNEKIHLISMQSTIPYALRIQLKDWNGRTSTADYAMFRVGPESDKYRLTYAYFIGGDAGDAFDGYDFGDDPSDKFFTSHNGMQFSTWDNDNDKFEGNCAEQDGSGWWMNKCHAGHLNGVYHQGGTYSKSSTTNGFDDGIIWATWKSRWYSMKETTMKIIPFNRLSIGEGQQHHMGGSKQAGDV
Experimental: The procedures for ELISA analysis were similar to the procedures described in the previous Examples. Briefly, fibrinogen from mouse (Sigma) diluted with PBS was added to a 96-well polystyrene microplate at 100 μL/well, and then the plate was sealed and allowed to stand at 4° C., overnight.
Each fibrin plate was prepared as follows. 100 μL of TBS containing a final concentration of 1.0 U/mL thrombin (Sigma), 2 mM CaCl₂ and 7 mM L-cysteine (Merck) was added to the wells of the fibrinogen plate, which was then washed with TBS and blocked with the buffer (5% non-fat dry milk/PBS). Thereafter, 100 μL of reteplase-(3D5-scFv) at various final concentrations (600 nM, 200 nM, 66 nM, 22 nM, 7.4 nM, 2.5 nM, and 0.8 nM) were added to each well and incubate at room temperature for 1 hour. The plate was than washed for three times, and HRP-conjugated protein L diluted to 1/5000 was added to the wells and incubated for 1 hour at room temperature. The wells were washed three times and added with 100 μL of TMB substrate buffer. 5 minutes later, the color development was stopped with 1 M HCl. The optical density (OD) was measured at 450 nm using a microplate reader.

binding result (mouse fibrinogen): no binding (tested: 200 nM) | binding result [1]: binds
B1: recombinant reteplase-(3D5 VL-218-VH scFv α fibrin) protein (other)
chain: SYQGNSDCYFGNGSAYRGTHSLTESGASCLPWNSMILIGKVYTAQNPSAQALGLGKHNYCRNPDGDAKPWCHVLKNRRLTWEYCDVPSCSTCGLRQYSQPQFRIKGGLFADIASHPWQAAIFAKHRRSPGERFLCGGILISSCWILSAAHCFQERFPPHHLTVILGRTYRVVPGEEEQKFEVEKYIVHKEFDDDTYDNDIALLQLKSDSSRCAQESSVVRTVCLPPADLQLPDWTECELSGYGKHEALSPFYSERLKEAHVRLYPSSRCTSQHLLNRTVTDNMLCAGDTRSGGPQANLHDACQGDSGGPLVCLNDGRMTLVGIISWGLGCGQKDVPGVYTKVTNYLDWIRDNMRPASGGGGSGGGGSGGGGSDIQMTQSPSSLSASVGDRVTITCRASQDVSNNVAWYQQKPGKAPKLLIFWSPWLYSGVPSRFSGSGSGTDFTLTISSLQPEDFATYYCQQGWDSPVTFGQGTKVEIKRGSTSGSGKPGSGEGSTKGEVQLVESGGGLVQPGGSLRLSCAASGFTISDFGIHWVRQAPGKGLEWVASIWPSGGYTYYADSVKGRFTISADTSKNTAYLQMNSLRAEDTAVYYCARSWFYSWYDYWGQGTLVTVSS
notes: Fusion: reteplase, flexible linker, 3D5 VL, 218 linker, 3D5 VH; also called reteplase-(3D5 scFv); reteplase-(3D5-scFv)
